Assay [1] addresses ROR1 extracellular segment (with transmembrane) on CHO (human). Put plainly: FACS. A general note: In flow cytometry, cells or beads pass a laser one at a time.
Assay [2] addresses T1, human ROR1 on tumor cell surface (human, UniProt Q01973). The experiment in a line: FACS, MDA-MB-231.
Assay [3] concerns the target T1, human ROR1 on tumor cell surface. Put plainly: FACS, NCI-H226.
A further assay addresses human ROR1-ECD (human). Put plainly: ELISA.
Assay [4] deals with T2, ROR1 with Frizzled domain removed (human).
T2 chain: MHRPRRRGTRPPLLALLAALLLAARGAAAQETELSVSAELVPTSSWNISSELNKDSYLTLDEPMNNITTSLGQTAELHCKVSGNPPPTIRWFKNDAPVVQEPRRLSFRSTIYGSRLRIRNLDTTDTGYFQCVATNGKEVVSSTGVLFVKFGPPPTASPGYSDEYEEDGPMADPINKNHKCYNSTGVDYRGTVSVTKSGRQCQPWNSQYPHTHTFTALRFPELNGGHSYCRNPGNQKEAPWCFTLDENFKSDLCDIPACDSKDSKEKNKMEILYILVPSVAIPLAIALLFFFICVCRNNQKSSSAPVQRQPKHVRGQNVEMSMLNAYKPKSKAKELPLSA
The experiment in a line: FACS.

In assay [5] the target is ROR1 with Kringle domain removed (human). The experiment in a line: FACS.
Assay [6] has as its target ROR1 with Ig-like domain removed (human). The experiment in a line: FACS.
For assay [7] the target is unchanged. The experiment in a line: FACS. The source holds these as a separate data set.
In a further assay the target is human ROR2-ECD (human, UniProt Q01974). The experiment in a line: ELISA. For orientation: An ELISA detects its analyte on a solid surface through an enzyme-linked reagent.
human ROR2-ECD, sequence (Q01974 34-403): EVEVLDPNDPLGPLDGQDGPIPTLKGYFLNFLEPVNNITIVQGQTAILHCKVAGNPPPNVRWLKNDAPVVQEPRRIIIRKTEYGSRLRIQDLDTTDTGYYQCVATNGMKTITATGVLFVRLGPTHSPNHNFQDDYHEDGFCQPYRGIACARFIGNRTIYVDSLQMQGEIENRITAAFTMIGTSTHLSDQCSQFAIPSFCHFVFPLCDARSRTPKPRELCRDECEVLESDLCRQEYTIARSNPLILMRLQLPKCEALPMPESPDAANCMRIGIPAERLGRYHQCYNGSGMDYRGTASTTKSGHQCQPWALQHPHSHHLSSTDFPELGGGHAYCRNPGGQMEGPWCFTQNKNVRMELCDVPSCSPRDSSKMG

By EC50 is commonly meant the concentration giving half of the maximal effect. Lower therefore signals higher potency in that assay.

T1 sequence (Q01973 30-406): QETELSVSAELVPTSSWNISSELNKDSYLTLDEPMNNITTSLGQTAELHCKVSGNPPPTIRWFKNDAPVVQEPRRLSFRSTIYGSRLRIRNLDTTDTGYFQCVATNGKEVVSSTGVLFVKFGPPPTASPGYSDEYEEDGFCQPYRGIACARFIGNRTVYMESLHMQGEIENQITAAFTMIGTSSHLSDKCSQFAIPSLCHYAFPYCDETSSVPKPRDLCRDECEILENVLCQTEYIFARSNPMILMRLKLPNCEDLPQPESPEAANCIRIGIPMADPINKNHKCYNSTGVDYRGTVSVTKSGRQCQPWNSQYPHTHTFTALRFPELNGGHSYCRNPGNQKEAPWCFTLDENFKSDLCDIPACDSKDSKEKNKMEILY
human ROR1-ECD (human), sequence (chain, as listed by the source): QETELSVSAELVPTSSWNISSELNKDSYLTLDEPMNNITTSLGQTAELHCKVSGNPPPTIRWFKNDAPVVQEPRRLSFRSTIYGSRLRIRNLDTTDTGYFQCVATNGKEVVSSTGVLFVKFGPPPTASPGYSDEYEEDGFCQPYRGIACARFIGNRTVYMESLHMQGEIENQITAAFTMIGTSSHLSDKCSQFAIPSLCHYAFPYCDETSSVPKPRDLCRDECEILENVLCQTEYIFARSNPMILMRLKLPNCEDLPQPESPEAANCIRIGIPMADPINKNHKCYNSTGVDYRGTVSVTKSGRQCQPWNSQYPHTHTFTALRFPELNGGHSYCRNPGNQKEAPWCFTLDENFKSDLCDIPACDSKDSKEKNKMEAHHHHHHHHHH

B1: mAb002c (antibody)
chain 1: EVQLQQSGPELVKPGASVKMSCKTSGYTFTDYNLHWVKQSHRRSLEWIGYINPNNGGTTYNQKFKGKATLTVDKSSSTAYMELRSLTSEDSAVYYFVRRVRTGTGFDYWGQGTTLTVSS
chain 2: EVLMTQTPLSLPVSLGDQASISCKSSHNILHTNGNTYLEWYLQKPGQSPKLLIYKVSNRFSGVPDRFSGSGSGTDFTLTISRVEAEDLGVYYCFQGSRFPYTFGGGTKLEIK
On to B1, for which the EC50 in [1] amounted to 0.6 nM; in [2] it was 0.2 nM; in [3] it was 0.14 nM; in the assay with human ROR1-ECD it was 0.013 nM; in assay [4], 0.86 nM; in assay [5], 0.66 nM. Also, the EC50 in [6] worked out at 0.35 nM.

B2: mAb002 (mouse) (antibody)
chain 1: EVQLQQSGPELVKPGASVKMSCKTSGYTFTDYNLHWVKQSHRRSLEWIGYINPNNGGTTYNQKFKGKATLTVDKSSSTAYMELRSLTSEDSAVYYFVRRVRTGTGFDYWGQGTTLTVSS
chain 2: EVLMTQTPLSLPVSLGDQASISCKSSHNILHTNGNTYLEWYLQKPGQSPKLLIYKVSNRFSGVPDRFSGSGSGTDFTLTISRVEAEDLGVYYCFQGSRFPYTFGGGTKLEIK
B2: the EC50 in assay [2] turned out to be 0.11 nM; with human ROR1-ECD, 0.028 nM.

B3: mAb005c (antibody, V domains shown)
VH: EVQLVESGGGLVKPGGSLKLSCAASGFTFNSYAMSWVRQTPEKRLEWVATISDGGSYTYYPDNEKGRFTISRDNAKNNLYLQMSHLKSEDTAIYYCVRGGYYYNLYAMDYWGQGTSVTVSS
VL: DIVLTQSPASLAVSLGQRAIISCKASQSVSFPGTSLMHWYQQKPGQQPKLLIYRASNLEAGVPTRFSGSGSRTDFTLNIHPVEEDDTATYYCQQSREYPWTFGGGTQLEIK
For B3, in [7], the binding result is on record as “no binding”.

B4: mAb003c (antibody, V domains shown)
VH: EVQLVESGGGLVKPGGSLKLSCAASGFTFSSYAMSWVRQTPEKRLEWVATISDGGSYTYYPDSVKGRFTISRDNAKNNLYLQMSHLKSEDTDMYYCVRGGYYYNLYAMDYWGQGTSVTVSS
VL: DIVLTQSPASLAVSLGQRAIISCKASQSVSFAGTSLMHWYQQKPGQQPKLLIYRASNLEAGVPTRFSGSGSRADFTLNIHPVEEDDAATYYCQQSGEYPWTFGGGTKLEIK
Turning to B4, the binding result in assay [7] is listed as “no binding”.

B5: Hu005-46 (antibody, V domains shown)
VH: EVQLVESGGGLVKPGGSLRLSCAASGFTFNSYAMSWVRQTPGKRLEWVATISDAGSYTYYPDNEKGRFTISRDNAKNSLYLQMNSLRAEDTAIYYCVRGGYYYNLYAMDYWGQGTLVTVSS
VL: DIVLTQSPDSLAVSLGERATINCKASQSVSFPGTSLMHWYQQKPGQQPKLLIYRASNLEAGVPDRFSGSGSRTDFTLTISSLQAEDVAVYYCQQSREYPWTFGGGTKVEIK
Regarding B5, the binding result with human ROR2-ECD is recorded as “no binding”.

B6: Hu001-02 (antibody, V domains shown)
VH: QVQLVQSGAEVKKPGASVKVSCKASGYTFTDYNLHWVRQAPGQGLEWMGYINPNHDATSYNQKFQGRVTMTRDTSTSTVYMELSSLRSEDTAVYYCARRVRTGTGLDDWGQGTTVTVSS
VL: DVVMTQSPLSLPVTLGQPASISCRSSHNIVHTNANTYLEWYQQRPGQSPRLLIYKVSNRFSGVPDRFSGSGSGTDFTLKISRVEAEDVGVYYCFQGSRFPYTFGGGTKVEIK
On to B6, for which, in the assay with human ROR2-ECD, the binding result is on record as “no binding”.

B7: UC-961 (antibody, V domains shown)
VH: QVQLQESGPGLVKPSQTLSLTCTVSGYAFTAYNIHWVRQAPGQGLEWMGSFDPYDGGSSYNQKFKDRLTISKDTSKNQVVLTMTNMDPVDTATYYCARGWYYFDYWGHGTLVTVSS
VL: DIVMTQTPLSLPVTPGEPASISCRASKSISKYLAWYQQKPGQAPRLLIYSGSTLQSGIPPRFSGSGYGTDFTLTINNIESEDAAYYFCQQHDESPYTFGEGTKVEIK
Turning to B7, the binding result in [7] was “no binding”.

The values above are taken from patent US20260325660 (published 2026).
